test: protease stability score; higher = more stable; yeast display proteolysis, trypsin and chymotrypsin;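 further: log10 excess protease needed over predicted unfolded state with 0 meaning unfolded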

Sequence | protease stability score
DEQDLKKVREFVQAQEEGDEDKLRELMDPNARVRVGDHRINGMDEIVKTDKKEVDDIKLSITDLKMHVKGDHMKVRIHQIVNHNGRPHTKTVDVVAHRHNGRLKSMERQDTK | -0.122
DEEVEEQVKELKRILETGDEDRMQENADPNVRAVYGNKEIHGRDQLREEIRSLKDEMRYEVEIKDYRIRPNEADVRATWHMRVNGQPMRQEVKVKIKFHNGKLKVFVLDFDEEHEKRSRK | -0.054
DNSVKKIVEEFWKAVKHGDPDKLRELADPNAKFDVGDKVLHGRDRAAKFLHDQHNNARFDITSLRIRVTNGRADIDVKLHVEHNGEPKTSSAKVIVRVRNGRMTELKIRERS | 0.637
DEKDNKTLHKIIRHGDWKKLQDLADENASVDIGNKKFHGRREVSKAMERLREKVDSVQYHSITVEGNSARIVYNLEVNGNRVKVQMKFSMHNGHLQEVVIRATNEEDSKKIDKQLG | 0.724
DEKQNDVVDDFMRAVREGDPTQLKSLVDPNARIQIGDRTYTGMEEYVTHVHKDLRKMRIEIRIKDIKAHNGHARIEFEVINTDNGRPDKKRMDVEFRIHNGKLKEAQYKSDR | 0.766
DHEKNKQHVDQFNEILKNGNPDEANKLADKDVEIEVGDKRYHGHEDFRKYQEEIAEQADHVKVTEVEVDGNKANVDVVLRINGKNLRRTFLLQIHNGRLKRLSFDPDQWDKARG | 0.91
DEKREQELAKKFADVFQRNNESELRKMIDENARYEIGDKTYRGTKAVKHVMKKVHDRADHVQVENFKAHNGTMELYLRYHVNGQDVRIIIELELRNGKVQHARYDVTSEEDRHNVEN | 0.041
DEEEDAEKLLERREKVFRQGDPDQMQRMMDPNARIKVGDREVHGREEVDRTLLEQARKADHIRFELKDMRVQGDKVVLDVHVKFEVNGRHQSRQVQYVAQFHNGRYTFRSARER | 0.047
DEELKERYERQEKAFENGDPDQAEDMMDPNVHVDVGNKELHGREEIVRDLHNVLQNWRFDRKVDSVNNRGDKLEVDAKQTLNVNGKPFHWHFTIVARAHNGKLKSQTVEMDPDTNRKIQS | -0.057
DEEVADNFRKLLHNLEQGDKRRVKEMVDENAHIVVGDKVYHGWETAAQDLVRLMHEIHFTITSVHVEVSNGRVRLKVHMKINVNGKPFRMVFTQEIEAENGTVKYINVQFDPEVLRRIES | 0.97
DEDNQTQTAERVVEIMRTGDEHKMRNLADENVKIQIGDKKYRGRDEASKQAKELRDRVDRLRVVRFDVHGNKVRIVMQFKYNGVTVNFKFTVEIHNGRVKSMEMRYTNPEDLKRARS | 0.182
DEDAERLINQLLTAERRGNPDQVMQQVDKNATQTVGDKHIHGREDISREVEKRKRESRVDRKVESIDIRGNQARIEVHFEEDRNGKPVTSAQTMDITFHNGVVHERKVQDDS | -0.743
DERKEAKEFADRIVKIIQTNNQDELEKNADPDVRVDVGDKQVHGREQLQDELKKLRTRADHVEVKIQDFKVHNGSVTVQMTIVYVVNGQKHKDERVYHAEIHNGRVKLKSARQK | 0.767
DDDEARKALQWFSTGDPDKLKKNVDENAKVQIGDKEYQGRDQAATALVKLQKRVDHVEIKHVSIDGDDVVVDLVLNVDGHEVRFTNEFRVENGKFQDVHINVTNEEDEKILKRVLG | 0.932
DEQDDAHKAKEFLEAVVTGNEERLRRMVDPNARIHYGDQEYHGREKIVDLMIRWRERVDHFTIDRVHSHNGRVQMDAFFTHNGRTKRFVARVVVHNGKVKSIEYTDG | 0.017
DDSREIEKFMTTVERALRRGDEHKLREMFPEDAHLEVGDKTYRGRENVVEANKEWANKFDHIHIRYDKLRVDNGKFDITITYVLKHNGRQETRRAKVVAHKTNGQVKMKSVFDT | 0.482
DERALRNWRRLETAVNTNNPDKVQKLMDKDVKYEVGDKTIRGRRHAAQSLVERVNKIHLDIKSVTATDSGDNVRIRLDAVRNHNGRPHRDVLNITVKADNGKIVSVKTTKDG | 0.001
DKHRVEHAKRILEIWTNGDEKSVKDLFDPNVRVDVGDKRITGREQLAREWKRRRDEMEWSLTVHEYKDDPNRVDINVHFNRNKNGRPRTQQQHLRIDMDNGSVRQLRIEDSK | 0.216
DEKQLKKAADRMVKAMETGDPQQINRMADENVRVEVGDKRISGEEDINRWLKELSDQADHARVKSIDASGNTVRVEMTIVVNGRETKLTIHVHFENGTAHHVRFQKS | 0.223
DEKRVEELARKLFKYIINGDQEKVKTLLKPNVEYNYIDTQYKGPDAAVTMAQEVKKVGAEVKVREEKVEGNTAEVVFQYRVGDNTMQTKAQVHYEGDKVKEVRVELSEEVKKVVHQG | 0.124
DEDAKRVANEISKAFDQNDPDKARQLADENAEVQIGDKVLHGRDQATNQLERQREEQNEHVDSVEIDVDGDKLKVRIHFNSHSNGRPRRNTRTYTIVVRNGHLQHLDMKENG | -0.246
DDDRRRQAEEILKIFETGDPQKLRSQFDPNARMHYGDKTIHGMEHAAESMERWQNEMRIELKSYSFRKQGDKVQIDAHFVVHHNGKPDTVKIHIRMELDGDKVREVSVEHTQ | 1.2
DEDAKKQVETMIRLIERGNEKEIKKQMDPNATYQVGDNRLHGMDQVNKHLKDLKEQMRFVFDVKSITVRGDKVDIDLQLDKNENGRPDKEDARMIVHVHNGSVKSVIVTTRG | 0.143
DDQRLRELNDTIAENIQSGDESKLSQLADPNVRLQIGDKEWHGREEMQKAWDELRRSADHIEIRSITAKGDHAVINAVLHHNGRTSQVRFDFSFHNGRIVRVSMHET | 1.48
DDEAKEHVEDFIRALKDNNPDEVDEYIDKDAKVHVGDTIYHGREEVRRDVERKKRHLRFDYEDVKIEVHGEKVVAHMKVEYQHNGRPDKARVILDVRFHNGRVRSLHIQEQK | -0.095

Sequence | protease stability score
DEDRYERLVKKAFEMIVKGNEEEVRKLLKPDVDYEYADHKFRGEEAAQFIVRLVQKVGAQAEVRRHKVEGNTATADFVYHDGDQTVQTRAEVTYEGDKLKQARVENTEEVKKLDHKG | 0.003
DETEIRLFHQFLRAIETNDEERAQQLADEDARYRYGNKEIDGMTQFQEDMDDKHKEARYSYSIDSVHDEPNRVVVEARAMVKINGKPTTYQVELHAHFHNGRMKKFTASVPEETLQSIRS | 0.054
DDDEIEKIARQLVKALQKGDFKHFVELMDKDVRLEYGDKEVHGREQAKQAMKELAERVDHVQLDDYKVHNGTAEIRLKLNFNGKSADVVFDMRIEDGRVKKIVIRYRSEEHRKHIDT | 1.24
DEEDEARTMADRIRHALENGDEQKFAEQADPNASVRIGDRTWHGRRQISNRLKEERERADHVELEIKSIKLHGDRVKIDFVLEQDINGRHETTQLTMTAELHNGNVRFKMMKEK | -0.332
DEKEHATEWLEDWQQQLRTGDEKSVANLFDPNARLNVGDKEVHGREDFEKEQKKIREEADHVDVEIVDLKTSPGHIQMFFNLRQTHNGQRQSHREVMVLRLQGDEVRVVKVEHN | -0.056
DESKKAKKFMEEYKRAIETGDEDTAKNLADKDARVKVGDTTYTGMDHIRERVVTEAKQVDHITFEVKEMQTRPGRLKVRMDVIFDHDGRKDRKEVVLVFKDNNGKVLLLSASYQ | -0.041
DDEEARHRLSRISKMLEENDPQRFSNQADEDVRVDIGDKEIHGKEEVARQLTEWRKQVDHVRVTSVEVQGDHASVQFRADVNGRHRVLTLYMKWTNGRVKEMHIKEG | 0.857
DERVIQEIRKMFNTNNFDSIAKNADKDATASIGNKHVHGKDNVKKLLDQFSRQIDHIQIDSVHVQGEKFVAQMKVNINGRERTAEMRMEVHNGKIQRISITFTDPSAQQTIKERME | 0.942
DEDKAKEFMRKALHILLEGDPDKFVRMADKDAHIQVGEHTVHGREQVRKFIQELQDKVDHNDVVDYEVRPNHANIEFQMNVNGRTVRMRVRLEFKNGKFKRATFDPDDVRKLHT | 1.33
DEDEEKRIRKYIKQQETGDPDKLNKYFDKDVHLHVGDKEVKGDEQANRELEHKFRKLRYSFEVKKLEVSNGKVEVKYHATVESNGKPHTYEVSADATLHNGRLQSQVNNERG | -0.021
DERDQVKRAKEYLHAFNQGDPDEADKNADPNAKVDVGDHRYHGREEFDKAVKTFKDQVDHIEVKDVKAQGNHASARVTADVNGHTLDMIITVELHNGKVKSYVVKKK | -0.175
DDHSSARKFADEFREMMKTGDSTKADELFDPNVRVEVGDKRYHGREQAVDWIRHLVDRYDHIEIRIDHITVRGDRISIVFTVHYEKNGETTYDRYVMVAVDRNGRAQIKMLRKG | 2.51
DEREMKQFIELMKQKQTGNEHHVREMFDPNAQIKVGDKTVHGKDNIREQAHRERKEMREDFRIESLDHDGERVVIKYEVQQNHNGRPKTYDVEAEAEVHNGHFKFVSVDNTE | -0.399
DEDAARSAEHLQRHNDFDEFARRADENVRLRVGDFRFQGREQVIRFMKRFTDRFDHVQFRRMDFHGNRMQAEFVAEVNGKTVKMKESFQIDNGRVHSVTQEATSEEDQEELKRLID | 0.254
DENKLKEVANRIVSAVRTNDPDHLANLFDKDDKFQIGEKQFHGHEELRKALEEIHQEVDRLHVKTYELHNGVVKIHVDMKYNGHEIKVVFYFTVHNGRLKYMEVKSQ | -0.346
DQHDAERMNRVFEQNNEEELHQLMDPNVEVTVGNKRVKGRERAKKLFKRLVTNIDHVSYRSVNDDGDKLELKFVAVINGQTYHLKIEVTLHNGKVKSIHLDARDEKLKHLLDEWLH | 1.39
DEEEMKEMLEKWHEAVQKGDSDKVKKLYKPNVEWEDSDTQKQGVEVVIKMLQEVQKKGLEFQVRKAKVEGDTAQAVYDLRFGDKTVTFTVELQAQGGRVDKVRVELNEEAKKVLTKG | 1.19
DEDDWRKRMKKVVEVLRTGNPDTMVDMVDENAKAKYGDKEYHGREQIHKWMEDRQKRYDHVNVKHMHIQGNKVNISAVYVVNGRSEDRQLQVVFDNGKIKSMRVTEQ | -0.053
DEKELKKVLERLVKAFKNGNTEEAKKLGKDDVQVEYGDEKYEGPDAMRTVLERVKKLGYEVEYKEEHYKGDTVTVKVEANLGGRTAKFRFQYQVQGQRVDKVKVEYSETAQKQIKHG | -0.106
DDEDAKRWEKFLKLQQEGNDSEMRKLVDENASFDVGNKHYSGMTTMAHELVRHAHDIRLEYKDVKIDVSGEQIYVTMEVTVNINGQPVRYTNVLEVTMHNGKVKTATNRIPEDVEREIRQ | 0.034
DEDLNDMAVRMAEILNEGNEDEYNKQIDPHARFVIGDKEYSGHEHFKKEIQRQNKEMRVTVNLHRWDATNGEMHLVIHYSWNVNGRPTTIHVHFRITARGDKFKQIDVHMDPDELRRVDS | 0.765
EERLQELAERWWKARRTGDPHKIRDLLDKDVRVEYGNKSIHGRENIAHEIVRQLKHLRLDEKVERIDRSNGHVRATLSVTVNINGQPYTYRFELRIRAHNGKVKKIELRMPEEVVRRLDT | 1.73
DEEFRHQVKQFLRAETRGNEETLKEQMDKDATFEVGDRVINGHEKYASDQHERRKEIRVEIKSMEVDAQGNTADYEIDFVEHFDGKPHRRKVRASIRVHNGRVKEIVEKDSQ | -0.184
DEEDMKKVVKQLLEAAQNGNTEKIVQLVKKDVEFKLGDTEYRGQEDVRKVVKKLRDIGAEFHVKEYEATGGEAKVKTVWHIGDNEAHVEVKYTVEDDKVDRVEVRWSEKAQKQIKKG | 0.801
DDEVKKFAEKFVTNLENNNPQELKSMADPNAKFEVGNKSVHGMDEYVRQVRERNEHMRFDVKRVQIRVNGNQIIINVHLHVNVNGRPVDLSYEVDINFDNGKIKYVRLDVDEDQEKRMTG | 1.1

Source: the NTF2 design screens of Basanta et al. (2020)
